# Laboratory results: PMC2756588
# T1: Abp1, P15891
# T1 sequence (P15891 535-592, looked up): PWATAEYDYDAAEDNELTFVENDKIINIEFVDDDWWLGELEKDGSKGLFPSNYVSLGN
# T2: Bbc1, P47068
# T2 sequence (P47068 1-78, looked up): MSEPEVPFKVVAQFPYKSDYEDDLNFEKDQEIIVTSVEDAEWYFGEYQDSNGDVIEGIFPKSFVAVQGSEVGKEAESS
# T3: Boi1, P38041
# T3 sequence (P38041 1-86, looked up): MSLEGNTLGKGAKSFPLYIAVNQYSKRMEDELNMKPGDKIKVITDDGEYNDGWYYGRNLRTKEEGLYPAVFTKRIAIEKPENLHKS
# T4: Boi2, P39969
# T4 sequence (P39969 32-116, looked up): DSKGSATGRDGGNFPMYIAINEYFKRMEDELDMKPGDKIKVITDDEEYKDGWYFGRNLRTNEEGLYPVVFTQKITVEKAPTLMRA
# T5: Bud14, P27637
# T5 sequence (P27637 247-328, looked up): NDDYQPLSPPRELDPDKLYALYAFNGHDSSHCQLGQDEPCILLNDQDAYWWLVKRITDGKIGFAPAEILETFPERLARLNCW
# T6: Bzz1-1, P38822
# T6 sequence (P38822 478-572, looked up): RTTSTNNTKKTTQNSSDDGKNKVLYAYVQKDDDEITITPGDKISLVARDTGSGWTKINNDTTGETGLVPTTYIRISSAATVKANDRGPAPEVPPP
# T7: Bzz1-2, P38822
# T7 sequence (P38822 568-633, looked up): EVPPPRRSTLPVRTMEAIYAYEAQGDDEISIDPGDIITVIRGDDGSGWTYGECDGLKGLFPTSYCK
# T8: Cdc25, P04821
# T8 sequence (P04821 50-136, looked up): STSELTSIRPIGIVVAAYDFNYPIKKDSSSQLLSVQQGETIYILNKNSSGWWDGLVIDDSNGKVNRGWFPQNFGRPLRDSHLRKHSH
# T9: Cyk3, Q07533
# T9 sequence (Q07533 1-83, looked up): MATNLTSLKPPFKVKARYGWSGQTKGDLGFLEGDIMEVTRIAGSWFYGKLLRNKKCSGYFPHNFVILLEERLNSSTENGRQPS
# T10: Fus1, P11710
# T10 sequence (P11710 432-512, looked up): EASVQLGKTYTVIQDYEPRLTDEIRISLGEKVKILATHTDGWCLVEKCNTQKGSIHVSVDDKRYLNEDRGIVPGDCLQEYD
# T11: Hof1, Q05080
# T11 sequence (Q05080 590-669, looked up): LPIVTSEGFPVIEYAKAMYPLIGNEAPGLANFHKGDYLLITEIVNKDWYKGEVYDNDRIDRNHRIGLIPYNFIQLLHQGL
# T12: Hse1, P38753
# T12 sequence (P38753 208-285, looked up): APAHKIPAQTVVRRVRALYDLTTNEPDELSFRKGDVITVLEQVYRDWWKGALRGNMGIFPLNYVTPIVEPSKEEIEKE
# T13: Lsb1, P53281
# T13 sequence (P53281 45-122, looked up): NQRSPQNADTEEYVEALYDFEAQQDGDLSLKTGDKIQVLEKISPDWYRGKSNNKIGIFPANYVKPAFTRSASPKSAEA
# T14: Lsb3, P43603
# T14 sequence (P43603 385-451, looked up): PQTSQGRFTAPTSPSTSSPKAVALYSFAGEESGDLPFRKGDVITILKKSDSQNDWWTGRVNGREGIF
# T15: Lsb4, P32793
# T15 sequence (P32793 402-468, looked up): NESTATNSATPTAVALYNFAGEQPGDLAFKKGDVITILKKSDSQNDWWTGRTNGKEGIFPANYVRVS
# T16: Myo5, Q04439
# T16 sequence (Q04439 1072-1160, looked up): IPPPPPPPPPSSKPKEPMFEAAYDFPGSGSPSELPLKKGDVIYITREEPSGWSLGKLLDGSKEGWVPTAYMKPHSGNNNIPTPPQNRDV
# T17: Nbp2, Q12163
# T17 sequence (Q12163 103-180, looked up): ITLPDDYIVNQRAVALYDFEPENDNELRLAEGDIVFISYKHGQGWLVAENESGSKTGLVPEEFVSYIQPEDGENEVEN
# T18: Pex13, P80667
# T18 sequence (P80667 295-386, looked up): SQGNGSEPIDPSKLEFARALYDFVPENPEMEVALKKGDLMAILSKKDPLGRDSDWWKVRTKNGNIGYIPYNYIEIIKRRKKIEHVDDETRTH
# T19: Pin3, Q06449
# T19 sequence (Q06449 53-122, looked up): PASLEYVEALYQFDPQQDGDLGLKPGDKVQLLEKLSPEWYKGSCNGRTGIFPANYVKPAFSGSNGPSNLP
# T20: Sla1-2, P32790
# T20 sequence (P32790 60-140, looked up): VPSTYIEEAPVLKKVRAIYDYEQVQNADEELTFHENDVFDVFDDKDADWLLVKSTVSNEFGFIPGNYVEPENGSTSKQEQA
# T21: Sla1-3, P32790
# T21 sequence (P32790 344-424, looked up): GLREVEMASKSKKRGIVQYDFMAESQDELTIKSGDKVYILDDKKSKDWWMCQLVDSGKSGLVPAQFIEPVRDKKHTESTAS
# Target: T1, Abp1, P15891
# Assay: SPOT array
# Settings: median of control spots 935
row,Binder,SPOT intensity
1,KFIPSRPAPKPPSSA,193
2,AVPPPPPPPPLPESL,0
3,IPSRPAPKPPSSASA,54

# Target: T2, Bbc1, P47068
# Assay: SPOT array
# Settings: median of control spots 796
row,Binder,SPOT intensity
1,KFIPSRPAPKPPSSA,316
2,AVPPPPPPPPLPESL,0
3,IPSRPAPKPPSSASA,121

# Target: Bem1-1, P29366
# Assay: SPOT array
# Settings: median of control spots 4282
# Sequence of Bem1-1, P29366 (P29366 55-141): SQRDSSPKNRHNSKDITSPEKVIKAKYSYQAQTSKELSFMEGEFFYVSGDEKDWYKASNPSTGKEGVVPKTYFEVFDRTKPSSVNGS
row,Binder,SPOT intensity
1,KFIPSRPAPKPPSSA,0
2,AVPPPPPPPPLPESL,0
3,IPSRPAPKPPSSASA,2

# Target: Bem1-2, P29366
# Assay: SPOT array
# Settings: median of control spots 4347
# Sequence of Bem1-2, P29366 (P29366 139-227): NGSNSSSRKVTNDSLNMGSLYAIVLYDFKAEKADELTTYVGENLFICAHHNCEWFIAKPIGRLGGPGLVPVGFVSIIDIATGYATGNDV
row,Binder,SPOT intensity
1,KFIPSRPAPKPPSSA,7700
2,AVPPPPPPPPLPESL,2
3,IPSRPAPKPPSSASA,2680

# Target: T3, Boi1, P38041
# Assay: SPOT array
# Settings: median of control spots 1162
row,Binder,SPOT intensity
1,KFIPSRPAPKPPSSA,0
2,AVPPPPPPPPLPESL,0
3,IPSRPAPKPPSSASA,0

# Target: T4, Boi2, P39969
# Assay: SPOT array
# Settings: median of control spots 1161
row,Binder,SPOT intensity
1,KFIPSRPAPKPPSSA,0
2,AVPPPPPPPPLPESL,1
3,IPSRPAPKPPSSASA,0

# Target: T5, Bud14, P27637
# Assay: SPOT array
# Settings: median of control spots 956
row,Binder,SPOT intensity
1,KFIPSRPAPKPPSSA,0
2,AVPPPPPPPPLPESL,0
3,IPSRPAPKPPSSASA,0

# Target: T6, Bzz1-1, P38822
# Assay: SPOT array
# Settings: median of control spots 4446
row,Binder,SPOT intensity
1,KFIPSRPAPKPPSSA,0
2,AVPPPPPPPPLPESL,0
3,IPSRPAPKPPSSASA,6

# Target: T7, Bzz1-2, P38822
# Assay: SPOT array
# Settings: median of control spots 4538
row,Binder,SPOT intensity
1,KFIPSRPAPKPPSSA,10
2,AVPPPPPPPPLPESL,1
3,IPSRPAPKPPSSASA,0

# Target: T8, Cdc25, P04821
# Assay: SPOT array
# Settings: median of control spots 969
row,Binder,SPOT intensity
1,KFIPSRPAPKPPSSA,0
2,AVPPPPPPPPLPESL,0
3,IPSRPAPKPPSSASA,0

# Target: T9, Cyk3, Q07533
# Assay: SPOT array
# Settings: median of control spots 1451
row,Binder,SPOT intensity
1,KFIPSRPAPKPPSSA,0
2,AVPPPPPPPPLPESL,2
3,IPSRPAPKPPSSASA,3

# Target: T10, Fus1, P11710
# Assay: SPOT array
# Settings: median of control spots 1200
row,Binder,SPOT intensity
1,KFIPSRPAPKPPSSA,0
2,AVPPPPPPPPLPESL,0
3,IPSRPAPKPPSSASA,1

# Target: GST
# Assay: SPOT array
# Settings: median of control spots 978
row,Binder,SPOT intensity
1,KFIPSRPAPKPPSSA,0
2,AVPPPPPPPPLPESL,1
3,IPSRPAPKPPSSASA,0

# Target: T11, Hof1, Q05080
# Assay: SPOT array
# Settings: median of control spots 4086
row,Binder,SPOT intensity
1,KFIPSRPAPKPPSSA,0
2,AVPPPPPPPPLPESL,1
3,IPSRPAPKPPSSASA,0

# Target: T12, Hse1, P38753
# Assay: SPOT array
# Settings: median of control spots 1727
row,Binder,SPOT intensity
1,KFIPSRPAPKPPSSA,2
2,AVPPPPPPPPLPESL,0
3,IPSRPAPKPPSSASA,1

# Target: T13, Lsb1, P53281
# Assay: SPOT array
# Settings: median of control spots 388
row,Binder,SPOT intensity
1,KFIPSRPAPKPPSSA,692
2,AVPPPPPPPPLPESL,0
3,IPSRPAPKPPSSASA,493

# Target: T14, Lsb3, P43603
# Assay: SPOT array
# Settings: median of control spots 406
row,Binder,SPOT intensity
1,KFIPSRPAPKPPSSA,41
2,AVPPPPPPPPLPESL,0
3,IPSRPAPKPPSSASA,10

# Target: T15, Lsb4, P32793
# Assay: SPOT array
# Settings: median of control spots 397
row,Binder,SPOT intensity
1,KFIPSRPAPKPPSSA,78
2,AVPPPPPPPPLPESL,0
3,IPSRPAPKPPSSASA,21

# Target: Myo3, P36006
# Assay: SPOT array
# Settings: median of control spots 468
row,Binder,SPOT intensity
1,KFIPSRPAPKPPSSA,527
2,AVPPPPPPPPLPESL,490
3,IPSRPAPKPPSSASA,575

# Target: T16, Myo5, Q04439
# Assay: SPOT array
# Settings: median of control spots 471
row,Binder,SPOT intensity
1,KFIPSRPAPKPPSSA,339
2,AVPPPPPPPPLPESL,132
3,IPSRPAPKPPSSASA,447

# Target: T17, Nbp2, Q12163
# Assay: SPOT array
# Settings: median of control spots 357
row,Binder,SPOT intensity
1,KFIPSRPAPKPPSSA,2510
2,AVPPPPPPPPLPESL,1
3,IPSRPAPKPPSSASA,1230

# Target: T18, Pex13, P80667
# Assay: SPOT array
# Settings: median of control spots 1341
row,Binder,SPOT intensity
1,KFIPSRPAPKPPSSA,221
2,AVPPPPPPPPLPESL,12
3,IPSRPAPKPPSSASA,873

# Target: T19, Pin3, Q06449
# Assay: SPOT array
# Settings: median of control spots 2171
row,Binder,SPOT intensity
1,KFIPSRPAPKPPSSA,8
2,AVPPPPPPPPLPESL,0
3,IPSRPAPKPPSSASA,7

# Target: Rvs167, P39743
# Assay: SPOT array
# Settings: median of control spots 2707
# Sequence of Rvs167, P39743 (P39743 419-482): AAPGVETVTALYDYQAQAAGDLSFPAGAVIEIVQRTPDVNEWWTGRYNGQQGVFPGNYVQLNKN
row,Binder,SPOT intensity
1,KFIPSRPAPKPPSSA,7
2,AVPPPPPPPPLPESL,0
3,IPSRPAPKPPSSASA,1

# Target: Sho1, P40073
# Assay: SPOT array
# Settings: median of control spots 1148
# Sequence of Sho1, P40073 (P40073 287-367): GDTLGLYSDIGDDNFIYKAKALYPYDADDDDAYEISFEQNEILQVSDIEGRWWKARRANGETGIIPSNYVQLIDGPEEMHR
row,Binder,SPOT intensity
1,KFIPSRPAPKPPSSA,47
2,AVPPPPPPPPLPESL,0
3,IPSRPAPKPPSSASA,0

# Target: T20, Sla1-2, P32790
# Assay: SPOT array
# Settings: median of control spots 712
row,Binder,SPOT intensity
1,KFIPSRPAPKPPSSA,0
2,AVPPPPPPPPLPESL,0
3,IPSRPAPKPPSSASA,0

# Target: T21, Sla1-3, P32790
# Assay: SPOT array
# Settings: median of control spots 5475
row,Binder,SPOT intensity
1,KFIPSRPAPKPPSSA,199
2,AVPPPPPPPPLPESL,3
3,IPSRPAPKPPSSASA,29
